Results taken from article PMC10681719, “An archaeal virus-encoded anti-CRISPR protein inhibits type III-B immunity by inhibiting Cas RNP complex turnover”.

What was measured:
[1] = molecular target: Cmr-α ribonucleoprotein complex (RNP) (S. islandicus | S. islandicus (endogenous in the expression strain))
AcrIIIB2 [2] = molecular target: T1, AcrIIIB2 (Sulfolobus islandicus rod-shaped virus …, UniProt A0A1B3SN31 1-149); experiment: EMSA; 10 mM EDTA; no difference in affinity among RNAs; EMSA: 20 mM MES pH 6.0, 10 mM EDTA, 250 nM FAM substrate, 70 C for 5 min (10 min stated for RNP in Methods); 12% native PAGE in 0.5x TB; settings: protein: recombinant, tags: C-terminal 6xHis (pET30a)
T1 sequence: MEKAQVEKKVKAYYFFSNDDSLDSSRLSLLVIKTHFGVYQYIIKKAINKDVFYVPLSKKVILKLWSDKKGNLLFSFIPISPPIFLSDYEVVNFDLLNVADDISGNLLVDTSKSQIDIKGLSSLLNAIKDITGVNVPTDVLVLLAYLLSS

AcrIIIB2 [3] = molecular target: T1, AcrIIIB2; experiment: EMSA; 250 nM RNA, 0-15 uM protein, 10 mM EDTA, 70 C; also binds at lower temperature; EMSA: 20 mM MES pH 6.0, 10 mM EDTA, 250 nM FAM substrate, 70 C for 5 min (10 min stated for RNP in Methods); 12% native PAGE in 0.5x TB; settings: protein: recombinant; tags: C-terminal 6xHis (pET30a); label: 5'-FAM

For His-tagged AcrIIIB2 (natural protein), which cis RNase activity of Cmr-α RNP (100 nM) on 250 nM labeled target RNA: uncleaved target RNA, AcrIIIB2 to Cmr-α RNP molar ratios 0 to 30 [1] is on record?
The cis RNase activity of Cmr-α RNP (100 nM) on 250 nM labeled target RNA: uncleaved target RNA, AcrIIIB2 to Cmr-α RNP molar ratios 0 to 30 was 80%.

And the trans ssDNase activity of Cmr-α RNP (100 nM) with 300 nM target RNA and 300 nM labeled ssDNA: uncleaved ssDNA, AcrIIIB2 to Cmr-α RNP molar ratios 0 to 30 [1]?
The trans ssDNase activity of Cmr-α RNP (100 nM) with 300 nM target RNA and 300 nM labeled ssDNA: uncleaved ssDNA, AcrIIIB2 to Cmr-α RNP molar ratios 0 to 30 was 15%.

Does UCAAAGCUUAGAUACCCUGGA (ssRNA) [RNA3] bind (AcrIIIB2 [2]; label: 5'-FAM)?
Result: binds

Does CCAAGCUAAUCUACUAUAGAAUUGAAAGCU (ssRNA) [RNA2] bind (AcrIIIB2 [2]; label: 5'-FAM)?
Result: binds

Does GUGACAGCAUCUCAUACUAGACAG (ssRNA) [RNA4] bind (AcrIIIB2 [2]; label: 3'-FAM)?
Result: binds

Does AGUCUCGUAACCAGUCCAAGAACAGAAACCAGUCAAAUGACCG (ssRNA) [RNA1 (target RNA, 43 nt)] bind (AcrIIIB2 [3])?
Result: binds
